Test results published in patent US20080280300A1, “Method” (PLASTICELL LIMITED, priority 2005, published 2008).

B1: TPO: murine thrombopoietin (R&D Systems), haematopoietic growth factor (protein, UniProt P40226 22-356, looked up)
Thrombopoietin: SPVAPACDPRLLNKLLRDSHLLHSRLSQCPDVDPLSIPVLLPAVDFSLGEWKTQTEQSKAQDILGAVSLLLEGVMAARGQLEPSCLSSLLGQLSGQVRLLLGALQGLLGTQLPLQGRTTAHKDPNALFLSLQQLLRGKVRFLLLVEGPTLCVRRTLPTTAVPSSTSQLLTLNKFPNRTSGLLETNFSVTARTAGPGLLSRLQGFRVKITPGQLNQTSRSPVQISGYLNRTHGPVNGTHGLFAGTSLQTLEASDISPGAFNKGSLAFNLQGGLPPSPSLAPDGHTPFPPSPALPTTHGSPPQLHPLFPDPSTTMPNSTAPHPVTMYPHPRNLSQET
B2: M-CSF: murine macrophage colony stimulating factor (R&D Systems), haematopoietic growth factor (protein, UniProt P07141 33-552, looked up)
Macrophage colony-stimulating …: KEVSEHCSHMIGNGHLKVLQQLIDSQMETSCQIAFEFVDQEQLDDPVCYLKKAFFLVQDIIDETMRFKDNTPNANATERLQELSNNLNSCFTKDYEEQNKACVRTFHETPLQLLEKIKNFFNETKNLLEKDWNIFTKNCNNSFAKCSSRDVVTKPDCNCLYPKATPSSDPASASPHQPPAPSMAPLAGLAWDDSQRTEGSSLLPSELPLRIEDPGSAKQRPPRSTCQTLESTEQPNHGDRLTEDSQPHPSAGGPVPGVEDILESSLGTNWVLEEASGEASEGFLTQEAKFSPSTPVGGSIQAETDRPRALSASPFPKSTEDQKPVDITDRPLTEVNPMRPIGQTQNNTPEKTDGTSTLREDHQEPGSPHIATPNPQRVSNSATPVAQLLLPKSHSWGIVLPLGELEGKRSTRDRRSPAELEGGSASEGAARPVARFNSIPLTDTGHVEQHEGSSDPQIPESVFHLLVPGIILVLLTVGGLLFYKWKWRSHRDPQTLDSSVGRPEDSSLTQDEDRQVELPV
B3: IL-5: mouse interleukin 5 (R&D Systems), haematopoietic growth factor (protein, UniProt P04401 21-133, looked up)
Interleukin-5: MEIPMSTVVKETLTQLSAHRALLTSNETMRLPVPTHKNHQLCIGEIFQGLDILKNQTVRGGTVEMLFQNLSLIKKYIDRQKEKCGEERRRTRQFLDYLQEFLGVMSTEWAMEG

System: myeloid progenitors derived from mouse embryonic stem cells (D3 ES cells) on microcarriers
Assay: mESC-based cell assay for regenerative drugs: conversion of myeloid progenitors to macrophage (DQ-ovalbumin)
Conditions: 48 h, triplicate, basal level 1%
Method: A screen was performed to identify regenerative drugs capable of stimulating the myeloid lineages of the haematopoietic system. The screen was performed by using a series of culture steps to differentiate mouse embryonic stem cells (mESC) seeded on microcarriers into progenitors of the myeloid lineages, and subsequently subjecting these to culture conditions in the presence or absence of the lineage specific haematopoietic growth factors TPO, M-CSF and IL-5, or the control compound Vitamin C which is reported to affect cell survival but is not a haematopoietic growth factor. After 48 hours the effect on myeloid cell differentiation was assessed using the appearance of macrophages as a surrogate assay. This screen identified TPO and M-CSF as haematopoietic regenerative drugs capable of stimulating the myeloid lineage.
On the day preceding day 1 of the experiment, approximately 1.5×10^4 biotinylated micocarriers equilibrated in medium A (IMDM (Gibco), 15% KOSR, 1% NEAA, 0.5% pen/strep, 0.1 mM β-ME, 1000 U/ml LIF and 1.5×10^−4 M, 1-thioglycerol (MTG; Sigma)) were added to 100 ml of medium A containing approximately 4.5×10^6 ES cells, split into three equal aliquots placed in wells of a 100 mm square petri dish (Bibby Sterilin) and incubated overnight.
In order to prepare myeloid progenitors a two step method was employed. Beads seeded with mESC as described above were incubated in IMDM containing […] retinoic acid for 72 h. The beads were then washed in PBS and transferred to Stemline™ Haematopoietic Expansion Medium (Sigma) containing 40 ng/ml SCF, 2.5 ng TGFβ1, 5 ng/ml BMP2 and 20 ng/ml TPO and incubated for 48 h:
Beads blearing myeloid progenitors prepared as described above were mixed, washed in PBS and transferred to the Test Growth Medium (Stemline™Haematopoietic Expansion Medium (Sigma) supplemented with 30 ng/ml IL-3 and 20 ng/ml IL-6). Equal aliquots of approximately 100 beads were dispensed into the wells of a 48 well plate and incubated in the presence or absence of 50 μg/ml Vitamin C, 10 ng/ml IL-5, 20 ng/ml TPO and 20 ng/ml M-CSF. The screen was carried out in triplicate in wells of separate plates placed in the same incubator.
After 48 h, 1 mg of the macrophage assay reagent DQ-ovalbumin (Molecular Probes) was made up in 0.4 ml PBS and added to each well at a dilution of 1:100. Following incubation for at least 4 h, the medium was aspirated and replaced with PBS. The samples were examined on a Nikon TE2000-S inverted epifluorescent microscope using a-FITC filter set to quantitate microcarriers bearing large, round cells internally labelled with green fluorescence.
The results of the screen are reported as the average number (per cent) of microcarriers that were decorated with macrophage. […]

[1] = 20 ng/ml TPO or M-CSF in Test Growth Medium (IL-3, IL-6)

Molecule | average conversion to macrophage (average number (per cent) of microcarriers decorated with macrophage) [1] | also measured
O=C1O[C@H]([C@@H](O)CO)C(O)=C1O [Vitamin C, Ascorbic acid, reference compound] |  | average conversion to macrophage (average number (per cent) of microcarriers decorated with macrophage) (50 μg/ml Vitamin C in Test Growth Medium (IL-3, IL-6)): 0%
B1 | 6% | 
B2 | 6% | 
B3 |  | average conversion to macrophage (average number (per cent) of microcarriers decorated with macrophage) (10 ng/ml IL-5 in Test Growth Medium (IL-3, IL-6)): 0%
